Tested on: Bacillus subtilis
Assay: cleaved RNA product abundance (RNA/gDNA barcode ratio) relative to median wild-type variant (ratio to wild type); higher = more accumulation of the downstream cleavage product
Procedure, shortened: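 Cleaved product abundance was measured with barcoded reporter mRNAs (truncated aprE or tetM) carrying mutagenized RNase Y cleavage-site windows in the B. subtilis chromosome. Cultures in LB at 37°C grew from OD600 0.0003 to 0.3. Gel-selected cleaved RNA was reverse transcribed and barcode-sequenced with genomic DNA barcodes, and the RNA:gDNA barcode ratio per construct was scaled to the median construct bearing the unmutated site.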

[1] = experiment (reporter, strain, medium): exp 2b: truncated aprE reporter, strain BJT200, cleavage site: cggR-gapA (positions -7 to +36 mutated)
[2] = experiment (reporter, strain, medium): exp 4a: truncated aprE reporter, strain BJT201 with 2% xylose (RNase J1 expressed), cleavage site: cggR-gapA (positions -7 to +36 mutated)
[3] = experiment (reporter, strain, medium): exp 8a: truncated aprE reporter, strain BJT201 with 2% xylose (RNase J1 expressed), cleavage site: glnRA (positions -5 to +31 mutated)
[4] = experiment (reporter, strain, medium): exp 6: tetM reporter, strain 168, cleavage site: cggR-gapA (positions -7 to +36 mutated)

Sequence	cleaved RNA product abundance [2]	cleaved RNA product abundance [3]	further results
ACAGACGAAGGAGCCGCAAAGAAGTTATTAACAGATGAATAATCCCTCAATATAAATATCTCTCACTTATTTAAA	0.0984		cleaved RNA product abundance [1]: 0.0822
ACAGACGAAGGAGCCGCAAAGAAGTTATTAAGGGACGAATAGTCCCTCAATATAAATATCTCTCACTTATTTAAA			cleaved RNA product abundance [1]: 0.905
ACAGACGAAGGAGCCGCATAGAAGTTATTAAGGGATGAATAATCCCACAATATAAATATCTCTCACTTATTTAAA	0.292		
ACAGACGAAGGAGCCGCAAAGAAGTTATTAAAGGATGAATAATCCCCTCAATATAAATATCTCTCACTTATTTAA	0.159		
ACAGACGAAGGAGCCGCAAAAAAGTTATTAAGGGATGAATAATCCCTCAATATAAATCTCTCTCACTTATTTAAA	0.362		
ACAGACGAAGGAGCCGCAAAGAATTTATTAAGGGATGCATAATCCCTCAATATAAATATCTCTCACTTATTTAAA	0.597		cleaved RNA product abundance [1]: 0.535
ACAGACGAAGGAGCCGCAAAGAAGTTATTAAGGGATGAATAAACCCACAATATAAATATCTCTCACTTATTTAAA	0.0828		cleaved RNA product abundance [1]: 0.143
CGACATGTCCCGCTTCTTTCATTAATCTGTTAGCAACTGTTTTGCTATAGACATTTACCTTTTAAGAGGAGGAAT		0.968	
CGACATGTCCCGCTTCTTTCATTAATCCGTTAGCAACTGTTTTGCTATATACATTGACCATTTAAGAGGAGGAAT		0.525	
ACAGACGAAGGAGCCGCAAAGAAGTTATTAAGGCATGAATAATCCCTCAATATTAATATCTCTCACTTATTTAAA	0.0489		
CGACATGTCCCGCTTCTTTCATTAATCCGTTAGCCACTGTTTTGCTATAAACATTTACCTTTTAAGAGGAGGAAT		0.219	
ACAGACGAAGGAGCCGCAAAGCAGTTATTAAGGGATAAATAATCCCTCAATATAAATATCTCTCACTTATTTAAA	0.625		
ACAGACGAAGGAGCCGCAAAGAAGTTATTAAGGGATGAATAACCCCTTAATATAAATATCTCTCACTTATTTAAA	0.505		cleaved RNA product abundance [1]: 1.34
ACAGACGAAGGAGCCGCAAAGAAGTTACTAAGGGATGAATAATCCCTCATTATAAATATCTCTCACTTATTTAAA	0.342		cleaved RNA product abundance [1]: 0.218
ACAGACGAAGGAGCCGCAAAGAAGTTATTAATGGGTGAATAATCCCTCAATATAAATATCTCTCACTTATTTAAA	0.188		
ACAGACGAAGGAGCCGCAAAGAAGTTATTAAAGGATGAATAATCCCTCAATATACATATCTCTCACTTATTTAAA	0.17		cleaved RNA product abundance [4]: 0.136
ACAGACGAAGGAGCCGCAAAGAAGTAATTAAGGGATCAATAATCCCTCAATATAAATATCTCTCACTTATTTAAA	0.305		cleaved RNA product abundance [1]: 0.181
ACAGACGAAGGAGCCGCAAAGAAGTTATTAAGCGATGCATAATCCCTCAATATAAATATCTCTCACTTATTTAAA	0.125		
ACAGACGAAGGAGCCGCAAAGAAGTTATTAAGAGATGAATAATCCCTCAATATAAATATCTCTCACTATTTAAAG	0.151		
ACAGACGAAGGAGCCGCAAAGAAGTTATTAAGGGATCACTAATCCCTCAATATAAATATCTCTCACTTATTTAAA	1.19		
CGACATGTCCCGCTTCTTTCATTAATCCGTTAGCAACTATTTTGTTATATACATTTACCTTTTAAGAGGAGGAAT		0.578	
ACAGACGAAGGAGCCGCAAAGAAGTTATTAAGGAATGACTAATCCCTCAATATAAATATCTCTCACTTATTTAAA	0.103		
ACAGACGAAGGAGCCGCAATGAAGTTATTAAGGGATGAATGATCCCTCAATATAAATATCTCTCACTTATTTAAA	0.506		

Sequence	cleaved RNA product abundance [2]	cleaved RNA product abundance [3]	further results
ACAGACGAAGGAGCCGCAAAGATGTTATTAAGGGAAGAATAATCCCTCAATATAAATATCTCTCACTTATTTAAA	0.51		
CGACATGTCCCGCTTCTTTCATTAATCCGTTTGCAACTGTTTTGCTATACACATTTACCTTTTAAGAGGAGGAAT		0.386	
ACAGACGAAGGAGCCGCAAATACGTTATTAAGGGATGAATAATCCCTCAATATAAATATCTCTCACTTATTTAAA	0.984		
ACAGACGAAGGAGCCGCACAGAACTTATTAAGGGATGAATAATCCCTCAATATAAATATCTCTCACTTATTTAAA	0.558		
CGACATGTCCCGCTTCTTTCATTAATCCGTTAGCTACTGTTTTGCTATATTCATTTACATTTTAAGAGGAGGAAT		0.64	
CGACATGTCCCGCTTCTTTCATTAATCCGTTAGCAACTGTTTTGCTATACACATTTACCTTTTAAGAGGAGGAAT		0.459	
CGACATGTCCCGCTTCTTTCATTAACCCGTTAGCAACTTTTTTGCTATATACATTTACCTTTTAAGAGGAGGAAT		0.909	
ACAGACGAAGGAGCCGCAAAGAAGTAATTAAGGGATGAATAATACCTCAATATAAATATCTCTCACTTATTTAAA	0.141		cleaved RNA product abundance [1]: 0.115
ACAGACGAAGGAGCCGCAAAGAAGTTATTAATGGATGAATGATCCCTCAATATAAATATCTCTCACTTATTTAAA	0.113		
ACAGACGAAGGAGCCGCAAAGAAGTTATTAAGGAATGAATAATCCCTCAATATAAATATTTCTCACTTATTTAAA	0.136		
CGACATGTCCCGCTTCTTTCATTAATCCGTTAGCAACTAATTTGCTATATACATTTACCTTTTAAGAGGAGGAAT		1.85	
ACAGACGAAGGAGCCGCAAAGAAGTTATTAATGGATGAATCATCCCTCAATATAAATATCTCTCACTTATTTAAA	0.189		cleaved RNA product abundance [1]: 0.122
ACAGACGAAGGAGCCGCAAAGATGTTATTAAGTGATGAATAATCCCTCAATATAAATATCTCTCACTTATTTAAA	0.11		cleaved RNA product abundance [1]: 0.1
CGACATGTCCCGCTTCTTTCATTAATCCGTTAGCAACTGGTTTGCTATATACATTTACTTTTTAAGAGGAGGAAT		0.918	
CGACATGTCCCGCTTCTTTCATTAATCCGTTAGCAACTGTTATGCTATATACATTTAGCTTTTAAGAGGAGGAAT		0.711	
CGACATGTCCCGCTTCTTTCATTAATGAGTTAGCAACTGTTTTGCTATATACATTTACCTTTTAAGAGGAGGAAT		1.18	
CGACATGTCCCGCTTCTTTCATTATTCCGTTAGCAACTGTTTTGCTATATACATTTTCCTTTTAAGAGGAGGAAT		0.792	
CGACATGTCCCGCTTCTTTCATTATTCCGTGAGCAACTGTTTTTCTATATACATTTACCTTTTAAGAGGAGGAAT		0.407	
ACAGACGAAGGAGCCGCAAATAAGTTATTAAGGGATGAATAATCCCTCAATATAAATATCTCTCACTTATTTAAA	0.932		cleaved RNA product abundance [1]: 0.972; cleaved RNA product abundance [4]: 1.07
ACAGACGAAGGAGCCGCAAAGAAGTTATTAAGGAATGAATAATCCCTCAATATAAAAATCTCTCACTTATTTAAA	0.161		cleaved RNA product abundance [1]: 0.127
CGACATGTCCCGCTTCTTTCATTAAACCGTTAGCAACTGTTTTGCTTTATACATTTACCTTTTAAGAGGAGGAAT		0.165	
ACAGACGAAGGAGCCGCAAAGAAGTTATTAAAGGATGAATAATCCCTCCATATAAATATCTCTCACTTATTTAAA	0.0862		
ACAGACGAAGGAGCCGCAAAGAAGTTATTAAGGGATGAATGATCCCTCAAAATAAATATCTCTCACTTATTTAAA	0.149		cleaved RNA product abundance [1]: 0.14
